Experimental data taken from article PMC12808597, “Spatially diffuse cAMP signalling with oppositely biased GLP-1 receptor agonists in β-cells despite differences in receptor localisation” (Molecular Metabolism, 2025).

Experiments:
[1] = target: mouse glucagon-like peptide-1 receptor, untagged (mouse) (UniProt O35659); experiment: imaging of fluorescent ligand bound to cells; washout: TMR-agonist detected at 60 min in AD293 cells transiently expressing untagged GLP-1R, with or without 20 uM exendin(9-39) applied 10 min after agonist
mouse glucagon-like peptide-1 receptor, untagged (mouse), sequence (O35659 22-463): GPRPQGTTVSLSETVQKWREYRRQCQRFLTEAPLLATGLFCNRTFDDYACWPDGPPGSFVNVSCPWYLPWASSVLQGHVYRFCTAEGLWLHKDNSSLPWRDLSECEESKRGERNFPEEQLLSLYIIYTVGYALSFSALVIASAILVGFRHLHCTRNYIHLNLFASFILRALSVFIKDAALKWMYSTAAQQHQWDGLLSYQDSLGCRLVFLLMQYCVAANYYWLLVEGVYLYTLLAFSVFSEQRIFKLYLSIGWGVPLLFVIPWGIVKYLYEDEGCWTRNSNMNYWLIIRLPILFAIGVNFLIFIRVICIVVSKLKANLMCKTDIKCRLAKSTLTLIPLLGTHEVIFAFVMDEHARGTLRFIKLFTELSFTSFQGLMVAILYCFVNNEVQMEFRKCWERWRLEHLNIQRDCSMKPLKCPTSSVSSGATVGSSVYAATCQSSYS

[2] = target: GLP-1R endogenous in wild-type mouse pancreatic islets (mouse (endogenous in C57Bl/6J islets)) (UniProt O35659); experiment: imaging of fluorescent ligand in intact islets; wild-type mouse islets, 1 nM TMR-agonist, continuous 60 min or 10 min then exendin(9-39) washout
GLP-1R endogenous in wild-type mouse pancreatic islets (mouse (endogenous in C57Bl/6J islets)), sequence (O35659 22-463): as above

[3] = target: mouse glucagon-like peptide-1 receptor, untagged (mouse) (UniProt O35659); experiment: imaging of fluorescent ligand bound to cells; Cy5- or TMR-agonist over a concentration range, 30 min stimulation; AD293 cells expressing untagged hGLP-1R or mGLP-1R, or wild-type INS-1 832/3 cells (non-specific binding from INS-1 832/3 Glp1r-/- cells subtracted); 'functional affinities'
[4] = target: human glucagon-like peptide-1 receptor, untagged (human) (UniProt P43220); experiment: as above
human glucagon-like peptide-1 receptor, untagged (human), sequence (P43220 24-463): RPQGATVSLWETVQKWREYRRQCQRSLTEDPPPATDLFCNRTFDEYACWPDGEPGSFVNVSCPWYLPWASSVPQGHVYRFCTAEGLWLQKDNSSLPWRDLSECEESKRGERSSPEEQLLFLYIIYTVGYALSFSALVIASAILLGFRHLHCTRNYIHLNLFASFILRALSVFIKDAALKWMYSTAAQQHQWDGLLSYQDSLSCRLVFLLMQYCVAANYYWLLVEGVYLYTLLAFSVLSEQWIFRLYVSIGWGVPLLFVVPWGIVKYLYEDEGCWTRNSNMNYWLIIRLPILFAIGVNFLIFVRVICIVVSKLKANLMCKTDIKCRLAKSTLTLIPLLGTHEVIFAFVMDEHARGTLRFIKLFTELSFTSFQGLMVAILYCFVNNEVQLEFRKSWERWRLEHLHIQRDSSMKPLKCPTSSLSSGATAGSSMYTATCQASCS

Substance	percent reduction of total ExD3-TMR binding by washout with 20 uM exendin(9-39) [1] [%]	total ligand bound after washout relative to continuously applied ExF1 [2] [fold]	fold lower affinity than the Cy5 equivalent [3] [fold]	fold lower affinity than the Cy5 equivalent [4] [fold]
exendin(9–39) (peptide)	50	–	–	–
exendin-asp3 tetramethylrhodamine conjugate (peptide)	–	2	3	5
exendin-phe1 tetramethylrhodamine conjugate (peptide)	–	–	3	5
